The subject of data set [1] is T1, E. coli BW25113 ΔbamBΔtolC.
T1 construct: BW25113 ΔbamBΔtolC empty vector pGDP4
In words: microbe, parasite or virus in culture. The following applies: Escherichia coli, BW25113, 24 h; empty vector. Here is the method: mphB was codon optimized, synthetized as a gBlock (IDT) and cloned into pET28a with an N-terminal histidine tag. The codon optimized mphB sequence is in Supplementary Table 17. mphI was previously cloned into pET22b[36]. pGDP4 is a derivative of pET28a with the multiple-cloning site under the control of the constitutive lac promoter. mphI was subcloned into pGDP4 using the XbaI and XhoI restriction sites. E. coli was routinely cultured on LB-Lennox (Bioshop) at 37 °C overnight, and either 100 µg mL^−1 ampicillin or 50 µg mL^−1 kanamycin was used for plasmid selection. E. coli TOP10 (Invitrogen) was used for routine cloning experiments and susceptibility testing of mphs cloned into pGDP4. E. coli BL21(DE3) (Stratagene, USA)was used for protein overexpression experiments. E. coli BW25113 ΔbamBΔtolC is an antibiotic hypersensitive, and was used for susceptibility testing of Mphs cloning into pGDP4. Antibiotic susceptibility testing was performed according to the Clinical and Laboratory Standards Institute guidelines[74] for determining minimal inhibitory concentration (MIC) in 96-well plates (Sarstedt, Germany) in duplicate. MIC values were reproducible. A saline suspension of OD600 of 0.1 was made from 2–3 colonies of a fresh overnight, and diluted 1:200 into Mueller-Hinton Broth (BD Biosciences). […] Susceptibility assays were performed at least two independent times.

The target in data set [2] is T2, MphH (Brachybacterium faecium, UniProt C7MEP1).
T2 construct: pMCSG53, N-terminal His6 tag and TEV site, crystallized
In words: X-ray crystal structure. The data set is classed as binding. The following applies: nucleotide site; GDP + Pi; crystallized with 5 mM azithromycin and 5 mM GMPPCP.

The test system of data set [3] is T3, MphI.
T3 construct: full-length, His-tagged in pET22b, expressed in E. coli BL21(DE3), Ni-NTA purified; primers span nt 1-927
The data set is described as follows: PK/LDH-coupled continuous assay. The data set is classed as biochemical, Paenibacillus sp. LC231. As to conditions: 10 mM MgCl2, 40 mM KCl, pH 7.5.

The target of data set [4] is T4, MphB (Escherichia coli, UniProt A0A0H3EUF3).
T4 construct: codon-optimized gene, N-terminal His tag in pET28a, expressed in E. coli BL21(DE3), Ni-NTA purified
The data set is described as follows: biochemical. More on the design: PK/LDH-coupled continuous assay of macrolide phosphorylation; steady-state kinetics, NADH absorbance. Here is the method: (§1) Steady-state kinetics for Mphs were measured using the continuous PK/LDH-coupled assay[27],[32],[36],[71]. Reactions were performed in 96-well plates (Nunc, Thermo Scientific) using Spectramax Plus384 (Molecular Devices) in duplicate. Individual reactions were 100 µL and contained 50 mM HEPES pH 7.5, 40 mM KCl, 10 mM MgCl2, 0.2 mM NADH, 3.5 mM PEP, and 4.8 U PK/LDH (pyruvate kinase/lactate dehydrogenase). […] For determining the Km for macrolides, GTP was maintained at 200 µM and macrolides were varied between 0.49 µM and 1000 µM. Enzyme efficiency varied considerably between substrates, and therefore some enzymes were used at different concentrations depending on the substrate in order to produce a linear range suitable for Km determination. These concentrations were as follows; MphB 140 nM (most substrates), MphB 36 nM (josamycin), MphI 45 nM (descladinose macrolides), MphI 1.44 µM (C3 cladinose macrolides), Azi_1.1 90 nM (all substrates), Ery_1 (all substrates), MphK 680 nM (all substrates), MphIS111R/T166E/P211L 90 nM (descladinose macrolides), MphIS111R/T166E/P211L 1.43 µM (C3 cladinose macrolides), MphIM40A/S111R/T166E 22 nM (descladinose macrolides), MphIM40A/S111R/T166E 430 nM (C3 cladinose macrolides), MphIS111R/T166E 22 nM (descladinose macrolides), MphIS111R/T166E 1.43 µM (C3 cladinose macrolides). Enzyme kinetics experiments were performed at least two independent times. Steady-state kinetics of Mphs

Data set [5] deals with CC[C@H]1OC(=O)[C@H](C)C(=O)[C@H](C)[C@@H](O[C@@H]2O[C@H](C)C[C@H](N(C)C)[C@H]2O)[C@](C)(OC)C[C@@H](C)C(=O)[C@H](C)[C@H]2N(CCCCn3cnc(-c4cccnc4)c3)C(=O)O[C@]12C. In words: PK/LDH-coupled continuous assay. The data set is classed as biochemical, Escherichia coli. As to conditions: 200 uM GTP, 10 mM MgCl2, 40 mM KCl, pH 7.5.
For data set [6], the system named is CC[C@H]1OC(=O)[C@H](C)[C@@H](O[C@H]2C[C@@](C)(OC)[C@@H](O)[C@H](C)O2)[C@H](C)[C@@H](O[C@@H]2O[C@H](C)C[C@H](N(C)C)[C@H]2O)[C@](C)(O)C[C@@H](C)C(=O)[C@H](C)[C@@H](O)[C@]1(C)O. In words: PK/LDH-coupled continuous assay. The following applies: 200 uM GTP, 10 mM MgCl2, 40 mM KCl, pH 7.5. The data set is classed as biochemical, Escherichia coli.
Data set [7] concerns CC[C@H]1OC(=O)[C@H](C)[C@@H](O[C@H]2C[C@@](C)(OC)[C@@H](O)[C@H](C)O2)[C@H](C)[C@@H](O[C@@H]2O[C@H](C)C[C@H](N(C)C)[C@H]2O)[C@](C)(O)C[C@@H](C)CN(C)[C@H](C)[C@@H](O)[C@]1(C)O. The data set is described as follows: PK/LDH-coupled continuous assay. The data set is classed as biochemical, Escherichia coli. As to conditions: 200 uM GTP, 10 mM MgCl2, 40 mM KCl, pH 7.5.
Data set [8] deals with Nc1nc2c(ncn2[C@@H]2O[C@H](COP(=O)(O)OP(=O)(O)OP(=O)(O)O)[C@@H](O)[C@H]2O)c(=O)[nH]1. In words: PK/LDH-coupled continuous assay. As to conditions: 100 uM telithromycin, 10 mM MgCl2, 40 mM KCl, pH 7.5. The data set is classed as biochemical, Escherichia coli.
Data set [9] concerns CC[C@H]1OC(=O)[C@H](C)C(=O)[C@H](C)[C@@H](O[C@@H]2O[C@H](C)C[C@H](N(C)C)[C@H]2O)[C@](C)(OC)C[C@@H](C)C(=O)[C@H](C)[C@H]2N(CCCCn3cnc(-c4cccnc4)c3)C(=O)O[C@]12C. In words: PK/LDH-coupled continuous assay. The data set is classed as biochemical, Bacillus subtilis. As to conditions: 200 uM GTP, 10 mM MgCl2, 40 mM KCl, pH 7.5.
For data set [10], the system named is CC[C@H]1OC(=O)[C@H](C)[C@@H](O[C@H]2C[C@@](C)(OC)[C@@H](O)[C@H](C)O2)[C@H](C)[C@@H](O[C@@H]2O[C@H](C)C[C@H](N(C)C)[C@H]2O)[C@](C)(O)C[C@@H](C)CN(C)[C@H](C)[C@@H](O)[C@]1(C)O. In words: PK/LDH-coupled continuous assay. The data set is classed as biochemical, Bacillus subtilis. As to conditions: 200 uM GTP, 10 mM MgCl2, 40 mM KCl, pH 7.5.
The subject of data set [11] is Nc1nc2c(ncn2[C@@H]2O[C@H](COP(=O)(O)OP(=O)(O)OP(=O)(O)O)[C@@H](O)[C@H]2O)c(=O)[nH]1. The data set is described as follows: PK/LDH-coupled continuous assay. The following applies: 100 uM telithromycin, 10 mM MgCl2, 40 mM KCl, pH 7.5. The data set is classed as biochemical, Bacillus subtilis.
Data set [12] has as its system CC[C@H]1OC(=O)C[C@@H](O)[C@H](C)[C@@H](O[C@@H]2O[C@H](C)[C@@H](O[C@H]3C[C@@](C)(O)[C@@H](O)[C@H](C)O3)[C@H](N(C)C)[C@H]2O)[C@@H](CC=O)C[C@@H](C)C(=O)/C=C/C(C)=C/[C@@H]1CO[C@@H]1O[C@H](C)[C@@H](O)[C@@H](OC)[C@H]1OC. The data set is described as follows: purified protein, by the assay type. Details: continuous PK/LDH-coupled NADH kinase assay, steady-state Km, macrolide or GTP varied. As to conditions: pH 7.5. The protocol: as §1, with “times.” for “times. Steady-state kinetics of Mphs”

For data set [13], the system named is CC[C@H]1OC(=O)[C@H](C)[C@@H](O[C@H]2C[C@@](C)(OC)[C@@H](O)[C@H](C)O2)[C@H](C)[C@@H](O[C@@H]2O[C@H](C)C[C@H](N(C)C)[C@H]2O)[C@](C)(O)C[C@@H](C)/C(=N\OCOCCOC)[C@H](C)[C@@H](O)[C@]1(C)O. The data set is described as follows: purified protein, by the assay type. Details: continuous PK/LDH-coupled NADH kinase assay, steady-state Km, macrolide or GTP varied. The following applies: pH 7.5. Here is the method: as §1, with “times.” for “times. Steady-state kinetics of Mphs”

≈ marks a conversion by molar mass, not a printed value.

In general, Km refers to the substrate concentration at which the rate is half of its maximum. Usually Ki stands for a dissociation constant, usually derived from enzyme kinetics or from competition with a known ligand. Usually kcat stands for the number of substrate molecules converted per active site and unit of time at saturation. Broadly, the kcat/Km is the turnover number divided by the Michaelis constant.

With `CC[C@H]1OC(=O)[C@H](C)[C@@H](O[C@H]2C[C@@](C)(OC)[C@@H](O)[C@H](C)O2)[C@H](C)[C@@H](O[C@@H]2O[C@H](C)C[C@H](N(C)C)[C@H]2O)[C@](C)(OC)C[C@@H](C)C(=O)[C@H](C)[C@@H](O)[C@]1(C)O` [Clarithromycin], the MIC in data set [1] is 0.5 µg/mL (≈ 0.668 µM).

With `Nc1nc2c(ncn2[C@@H]2O[C@H](COP(=O)(O)OP(=O)(O)O)[C@@H](O)[C@H]2O)c(=O)[nH]1` [GDP], in data set [2], the X-ray crystal structure entry is “MphH (native) GDP + Pi complex (5UXC)”.

`Nc1nc2c(ncn2[C@@H]2O[C@H](COP(=O)(O)OP(=O)(O)OP(=O)(O)O)[C@@H](O)[C@H]2O)c(=O)[nH]1` [GTP]: the Km in data set [3] (100 uM telithromycin) came to 10 ± 1 µM.

In data set [1], `NC[C@H]1O[C@H](O[C@H]2[C@H](O)[C@@H](O[C@H]3O[C@H](CO)[C@@H](O)[C@H](N)[C@H]3O)[C@H](N)C[C@@H]2N)[C@H](O)[C@@H](O)[C@@H]1O` [Kanamycin] displayed an MIC of 1 µg/mL (≈ 2.06 µM).

Consider `CC[C@H]1OC(=O)C[C@@H](O)[C@H](C)[C@@H](O[C@@H]2O[C@H](C)[C@@H](O[C@H]3C[C@@](C)(O)[C@@H](O)[C@H](C)O3)[C@H](N(C)C)[C@H]2O)[C@@H](CC=O)C[C@@H](C)C(=O)/C=C/C(C)=C/[C@@H]1CO[C@@H]1O[C@H](C)[C@@H](O)[C@@H](OC)[C@H]1OC` [Tylosin], for which the MIC in data set [1] was 2 µg/mL (≈ 2.18 µM). In data set [4], this compound came in with an inhibition constant Ki of 350 ± 160 µM.

In the case of `CC[C@H]1OC(=O)[C@H](C)[C@@H](O[C@H]2C[C@@](C)(OC)[C@@H](O)[C@H](C)O2)[C@H](C)[C@@H](O[C@@H]2O[C@H](C)C[C@H](N(C)C)[C@H]2O)[C@](C)(O)C[C@@H](C)C(=O)[C@H](C)[C@@H](O)[C@]1(C)O` [erythromycin], in data set [3] (200 uM GTP), the Km came out at 110 ± 10 µM. This compound returned an MIC in data set [1] of 0.5 µg/mL (≈ 0.681 µM).

In the case of `CC[C@H]1OC(=O)[C@H](C)[C@@H](O[C@H]2C[C@@](C)(OC)[C@@H](O)[C@H](C)O2)[C@H](C)[C@@H](O[C@@H]2O[C@H](C)C[C@H](N(C)C)[C@H]2O)[C@](C)(O)C[C@@H](C)/C(=N\OCOCCOC)[C@H](C)[C@@H](O)[C@]1(C)O` [roxithromycin], the Km in data set [3] (200 uM GTP) came to 32 ± 4 µM. The inhibition constant (Ki) in [4] is 960 ± 510 µM.

As to `CC[C@H]1OC(=O)[C@H](C)C(=O)[C@H](C)[C@@H](O[C@@H]2O[C@H](C)C[C@H](N(C)C)[C@H]2O)[C@](C)(OC)C[C@@H](C)C(=O)[C@H](C)[C@H]2N(CCCCn3cnc(-c4cccnc4)c3)C(=O)O[C@]12C` [telithromycin], the Km in data set [3] (200 uM GTP) worked out at 3 ± 0.5 µM. In addition, the MIC in data set [1] stood at 0.125 µg/mL (≈ 0.154 µM).

For “MphB (Escherichia coli O83:H1 str. NRG 857C)”, the Km in data set [5] worked out at 6.6 ± 1.8 µM; in data set [6], 1.6 ± 0.2 µM; in [7] it was 2.9 ± 0.36 µM; in data set [8], 8.3 ± 0.45 µM. Also, the catalytic constant (kcat) stood at 0.77 ± 0.04 s⁻¹ in [5], 0.0412 ± 0.0009 s⁻¹ in data set [6], 0.189 ± 0.004 s⁻¹ in data set [7] and 0.602 ± 0.008 s⁻¹ in [8].

As to “MphK (Bacillus subtilis subsp. subtilis str. 168)”, the Michaelis-Menten constant (Km) worked out at 4.2 ± 0.45 µM in [9]; 940 ± 320 µM in data set [10]; 17 ± 1 µM in data set [11]; 6.3 ± 2.4 µM in [12]; 100 ± 25 µM in data set [13]. The kcat was found to be 0.056 ± 0.001 s⁻¹ in data set [9]; 0.025 ± 0.005 s⁻¹ in data set [10]; 0.0491 ± 0.0004 s⁻¹ in [11]; 0.0022 ± 0.0002 s⁻¹ in [12]; 0.005 ± 0.0004 s⁻¹ in [13]. The kcat/Km in data set [12] came out at 350 M⁻¹ s⁻¹; in [13] it was 49 M⁻¹ s⁻¹.

These data come from publication PMC5760710, “The evolution of substrate discrimination in macrolide antibiotic resistance enzymes” (Nature Communications, 2018).
